Laboratory results as given in PMC9557730 (2022).

B1: C-terminal 3× FLAG-tagged WT Tfb2 [Saccharomyces cerevisiae] / Ssl2 [S. cerevisiae (endogenous in yeast)] (parent complex)
chain 1: MSDYSLKHSVTQYLEEIPQQVQNRLYTSPATCLAIYRILPPLAKFFIMAMVFNENEVPLLDLDKWVNSNGKLQFQNAIKSMKSLHLLIPNKSSGTLMINLNPTFKISLRNALTGGEVQNSFGVVVEENVVSLDLLDEYSANKWETILHFMVGTPLAKIPSEKVLNLLKHSKLMEEVNSTGEFKITNEGFQFLLQEINSQLWTLLLQYLKMIETSKMDLVDVLHFIFMLGALEVGKAYKIDALSETQRIMLQDMRDYGLVFQKHSNDSIFYPTKLALMLTSDTKTIRSASNAMDSVLRQNREEPSVNEDGANGKSTTDITTSDDLNKAGLKNQDIPDGSLIVETNFKIYSYSNSPLQIAVLSLFVHLKARFVNMVLGQITRESIRRALTNGITADQIIAYLETHAHPQMRRLAEEKLEKKLELDPNCKEPLQVLPPTVVDQIRLWQLELDRVITYEGSLYSDFETSQEYNLLSKYAQDIGVLLWKDDKKKKFFISKEGNSQVLDFAKRKLKKKQ
chain 2: MTDVEGYQPKSKGKIFPDMGESFFSSDEDSPATDAEIDENYDDNRETSEGRGERDTGAMVTGLKKPRKKTKSSRHTAADSSMNQMDAKDKALLQDTNSDIPADFVPDSVSGMFRSHDFSYLRLRPDHASRPLWISPSDGRIILESFSPLAEQAQDFLVTIAEPISRPSHIHEYKITAYSLYAAVSVGLETDDIISVLDRLSKVPVAESIINFIKGATISYGKVKLVIKHNRYFVETTQADILQMLLNDSVIGPLRIDSDHQVQPPEDVLQQQLQQTAGKPATNVNPNDVEAVFSAVIGGDNEREEEDDDIDAVHSFEIANESVEVVKKRCQEIDYPVLEEYDFRNDHRNPDLDIDLKPSTQIRPYQEKSLSKMFGNGRARSGIIVLPCGAGKTLVGITAACTIKKSVIVLCTSSVSVMQWRQQFLQWCTLQPENCAVFTSDNKEMFQTESGLVVSTYSMVANTRNRSHDSQKVMDFLTGREWGFIILDEVHVVPAAMFRRVVSTIAAHAKLGLTATLVREDDKIGDLNFLIGPKLYEANWMELSQKGHIANVQCAEVWCPMTAEFYQEYLRETARKRMLLYIMNPTKFQACQFLIQYHERRGDKIIVFSDNVYALQEYALKMGKPFIYGSTPQQERMNILQNFQYNDQINTIFLSKVGDTSIDLPEATCLIQISSHYGSRRQEAQRLGRILRAKRRNDEGFNAFFYSLVSKDTQEMYYSTKRQAFLVDQGYAFKVITHLHGMENIPNLAYASPRERRELLQEVLLKNEEAAGIEVGDDADNSVGRGSNGHKRFKSKAVRGEGSLSGLAGGEDMAYMEYSTNKNKELKEHHPLIRKMYYKNLKK
B2: N-terminal 3×-FLAG-tagged p52 (WT) [human] / p34 [human (endogenous in HEK293T)] (parent complex)
chain 1: MESTPSRGLNRVHLQCRNLQEFLGGLSPGVLDRLYGHPATCLAVFRELPSLAKNWVMRMLFLEQPLPQAAVALWVKKEFSKAQEESTGLLSGLRIWHTQLLPGGLQGLILNPIFRQNLRIALLGGGKAWSDDTSQLGPDKHARDVPSLDKYAEERWEVVLHFMVGSPSAAVSQDLAQLLSQAGLMKSTEPGEPPCITSAGFQFLLLDTPAQLWYFMLQYLQTAQSRGMDLVEILSFLFQLSFSTLGKDYSVEGMSDSLLNFLQHLREFGLVFQRKRKSRRYYPTRLAINLSSGVSGAGGTVHQPGFIVVETNYRLYAYTESELQIALIALFSEMLYRFPNMVVAQVTRESVQQAIASGITAQQIIHFLRTRAHPVMLKQTPVLPPTITDQIRLWELERDRLRFTEGVLYNQFLSQVDFELLLAHARELGVLVFENSAKRLMVVTPAGHSDVKRFWKRQKHSS
chain 2: MVSDEDELNLLVIVVDANPIWWGKQALKESQFTLSKCIDAVMVLGNSHLFMNRSNKLAVIASHIQESRFLYPGKNGRLGDFFGDPGNPPEFNPSGSKDGKYELLTSANEVIVEEIKDLMTKSDIKGQHTETLLAGSLAKALCYIHRMNKEVKDNQEMKSRILVIKAAEDSALQYMNFMNVIFAAQKQNILIDACVLDSDSGLLQQACDITGGLYLKVPQMPSLLQYLLWVFLPDQDQRSQLILPPPVHVDYRAACFCHRNLIEIGYVCSVCLSIFCNFSPICTTCETAFKISLPPVLKAKKKKLKVSA

Variants of: B1
Assay: FLAG IP and Western blot; whole-cell extracts; FLAG-tagged Tfb2 variants coexpressed with endogenous Tfb2; two biological replicates; read off a plot

**Q.** Which response does the source give for chain 1 MSDYSLKHSVTQYLEEIPQQVQNRLYTSPATCLAIYRILPPLAKFFIMAMVFNENEVPLLDLDKWVNSNGKLQFQNAIKSMKSLHLLIPNKSSGTLMINLNPTFKISLRNALTGGEVQNSFGVVVEENVVSLDLLDEYSANKWETILHFMVGTPLAKIPSEKVLNLLKHSKLMEEVNSTGEFKITNEGFQFLLQEINSQLWTLLLQYLKMIETSKMDLVDVLHFIFMLGALEVGKAYKIDALSETQRIMLQDMRDYGLVFQKHSNDSIFYPTKLALMLTSDTKTIRSASNAMDSVLRQNREEPSVNEDGANGKSTTDITTSDDLNKAGLKNQDIPDGSLIVETNFKAASASNSPLQIAVLSLFVHLKARFVNMVLGQITRESIRRALTNGITADQIIAYLETHAHPQMRRLAEEKLEKKLELDPNCKEPLQVLPPTVVDQIRLWQLELDRVITYEGSLYSDFETSQEYNLLSKYAQDIGVLLWKDDKKKKFFISKEGNSQVLDFAKRKLKKKQ [chain 1 I347A, chain 1 Y348A, chain 1 Y350A] here?
**A.** ~0.14 Western Signal/Tfb2-FLAG

**Q.** chain 1 MSDYSLKHSVTQYLEEIPQQVQNRLYTSPATCLAIYRILPPLAKFFIMAMVFNENEVPLLDLDKWVNSNGKLQFQNAIKSMKSLHLLIPNKSSGTLMINLNPTFKISLRNALTGGEVQNSFGVVVEENVVSLDLLDEYSANKWETILHFMVGTPLAKIPSEKVLNLLKHSKLMEEVNSTGEFKITNEGFQFLLQEINSQLWTLLLQYLKMIETSKMDLVDVLHFIFMLGALEVGKAYKIDALSETQRIMLQDMRDYGLVFQKHSNDSIFYPTKLALMLTSDTKTIRSASNAMDSVLRQNREEPSVNEDGANGKSTTDITTSDDLNKAGLKNQDIPDGSLIVETNFKIYSYSNSPLQIAVLSLFVHLKARAVNMVLGQITRESIRRALTNGITADQIIAYLETHAHPQMRRLAEEKLEKKLELDPNCKEPLQVLPPTVVDQIRLWQLELDRVITYEGSLYSDFETSQEYNLLSKYAQDIGVLLWKDDKKKKFFISKEGNSQVLDFAKRKLKKKQ [chain 1 F370A] was tested. Which response did it give?
**A.** ~0.085 Western Signal/Tfb2-FLAG

Variants of: B2
Assay: FLAG-IP LC–MS (iBAQ); HEK293T nuclear extracts; n = 3, biological replicates; read off a plot

**Q.** Which response does the source give for chain 1 MESTPSRGLNRVHLQCRNLQEFLGGLSPGVLDRLYGHPATCLAVFRELPSLAKNWVMRMLFLEQPLPQAAVALWVKKEFSKAQEESTGLLSGLRIWHTQLLPGGLQGLILNPIFRQNLRIALLGGGKAWSDDTSQLGPDKHARDVPSLDKYAEERWEVVLHFMVGSPSAAVSQDLAQLLSQAGLMKSTEPGEPPCITSAGFQFLLLDTPAQLWYFMLQYLQTAQSRGMDLVEILSFLFQLSFSTLGKDYSVEGMSDSLLNFLQHLREFGLVFQRKRKSRRYYPTRLAINLSSGVSGAGGTVHQPGFIVVFTNYRLYAYTESELQIALIALFSEMLYRFPNMVVAQVTRESVQQAIASGITAQQIIHFLRTRAHPVMLKQTPVLPPTITDQIRLWELERDRLRFTEGVLYNQFLSQVDFELLLAHARELGVLVFENSAKRLMVVTPAGHSDVKRFWKRQKHSS [chain 1 E310F] here?
**A.** ~0.64 Normalized Log2 iBAQ

**Q.** How did the response turn out when chain 1 MESTPSRGLNRVHLQCRNLQEFLGGLSPGVLDRLYGHPATCLAVFRELPSLAKNWVMRMLFLEQPLPQAAVALWVKKEFSKAQEESTGLLSGLRIWHTQLLPGGLQGLILNPIFRQNLRIALLGGGKAWSDDTSQLGPDKHARDVPSLDKYAEERWEVVLHFMVGSPSAAVSQDLAQLLSQAGLMKSTEPGEPPCITSAGFQFLLLDTPAQLWYFMLQYLQTAQSRGMDLVEILSFLFQLSFSTLGKDYSVEGMSDSLLNFLQHLREFGLVFQRKRKSRRYYPTRLAINLSSGVSGAGGTVHQPGFIVVETNYRLAAATESELQIALIALFSEMLYRFPNMVVAQVTRESVQQAIASGITAQQIIHFLRTRAHPVMLKQTPVLPPTITDQIRLWELERDRLRFTEGVLYNQFLSQVDFELLLAHARELGVLVFENSAKRLMVVTPAGHSDVKRFWKRQKHSS [chain 1 Y316A, chain 1 Y318A] was run?
**A.** ~0.67 Normalized Log2 iBAQ

**Q.** Which response does the source give for chain 1 MESTPSRGLNRVHLQCRNLQEFLGGLSPGVLDRLYGHPATCLAVFRELPSLAKNWVMRMLFLEQPLPQAAVALWVKKEFSKAQEESTGLLSGLRIWHTQLLPGGLQGLILNPIFRQNLRIALLGGGKAWSDDTSQLGPDKHARDVPSLDKYAEERWEVVLHFMVGSPSAAVSQDLAQLLSQAGLMKSTEPGEPPCITSAGFQFLLLDTPAQLWYFMLQYLQTAQSRGMDLVEILSFLFQLSFSTLGKDYSVEGMSDSLLNFLQHLREFGLVFQRKRKSRRYYPTRLAINLSSGVSGAGGTVHQPGFIVVETNYRLYAYTESELQIALIALFSEMLYAAPNMVVAQVTRESVQQAIASGITAQQIIHFLRTRAHPVMLKQTPVLPPTITDQIRLWELERDRLRFTEGVLYNQFLSQVDFELLLAHARELGVLVFENSAKRLMVVTPAGHSDVKRFWKRQKHSS [chain 1 R337A, chain 1 F338A] here?
**A.** ~0.73 Normalized Log2 iBAQ

**Q.** chain 1 MESTPSRGLNRVHLQCRNLQEFLGGLSPGVLDRLYGHPATCLAVFRELPSLAKNWVMRMLFLEQPLPQAAVALWVKKEFSKAQEESTGLLSGLRIWHTQLLPGGLQGLILNPIFRQNLRIALLGGGKAWSDDTSQLGPDKHARDVPSLDKYAEERWEVVLHFMVGSPSAAVSQDLAQLLSQAGLMKSTEPGEPPCITSAGFQFLLLDTPAQLWYFMLQYLQTAQSRGMDLVEILSFLFQLSFSTLGKDYSVEGMSDSLLNFLQHLREFGLVFQRKRKSRRYYPTRLAINLSSGVSGAGGTVHQPGFIVVATNYALYAYTESELQIALIALFSEMLYRFPNMVVAQVTRESVQQAIASGITAQQIIHFLRTRAHPVMLKQTPVLPPTITDQIRLWELERDRLRFTEGVLYNQFLSQVDFELLLAHARELGVLVFENSAKRLMVVTPAGHSDVKRFWKRQKHSS [chain 1 E310A, chain 1 R314A] was tested. Which response did it give?
**A.** ~0.67 Normalized Log2 iBAQ
